B1: HEEH_KT_rd6_0007 (parent)
chain: SIEEEIKKAEEAKEKGKTFIHGDFVATTEELLDELLKRLRKKL

Variants of: B1
Assay: folding stability dG (cDNA display proteolysis); higher = more stable
Conditions: PBS, room temperature

| Variant | folding stability dG |
| --- | --- |
| SIEEEIKKAEEAKEKGKTFIHGDFVATTTELLDELLKRLRKKL | 1.55 kcal/mol |
| SIEEEIKKAEEAKEKGKTFIHGDFVATTSELLDELLKRLRKKL | 1.46 kcal/mol |
| SIEEEIKKAEEAKEKGKTFIHGDFVATTPELLDELLKRLRKKL | 1.78 kcal/mol |
| SIEEEIKKAEEAKEKGKTFIHGDFVATTQELLDELLKRLRKKL | 1.41 kcal/mol |
| SIEEEIKKAEEAKEKGKTFIHGDFVATTVELLDELLKRLRKKL | 1.65 kcal/mol |
| SIEEEIKKAEEAKEKGKTFIHGDFVATTYELLDELLKRLRKKL | 1.18 kcal/mol |
| SIEEEIKKAEEAKEKGKTFIHGDFVATTWELLDELLKRLRKKL | 1.78 kcal/mol |
| SIEEEIKKAEEAKEKGKTFIHGDFVATTRELLDELLKRLRKKL | 1.62 kcal/mol |
| SIEEEIKKAEEAKEKGKTFIHGDFVATTELLLDELLKRLRKKL | 1.14 kcal/mol |
| SIEEEIKKAEEAKEKGKTFIHGDFVATTEKLLDELLKRLRKKL | 1.24 kcal/mol |
| SIEEEIKKAEEAKEKGKTFIHGDFVATTEYLLDELLKRLRKKL | 1.15 kcal/mol |
| SIEEEIKKAEEAKEKGKTFIHGDFVATTESLLDELLKRLRKKL | 1.12 kcal/mol |
| SIEEEIKKAEEAKEKGKTFIHGDFVATTECLLDELLKRLRKKL | 1.63 kcal/mol |
| SIEEEIKKAEEAKEKGKTFIHGDFVATTEMLLDELLKRLRKKL | 1.05 kcal/mol |
| SIEEEIKKAEEAKEKGKTFIHGDFVATTERLLDELLKRLRKKL | 1.19 kcal/mol |
| SIEEEIKKAEEAKEKGKTFIHGDFVATTEHLLDELLKRLRKKL | 1.15 kcal/mol |
| SIEEEIKKAEEAKEKGKTFIHGDFVATTEWLLDELLKRLRKKL | 1.42 kcal/mol |
| SIEEEIKKAEEAKEKGKTFIHGDFVATTEPLLDELLKRLRKKL | 0.673 kcal/mol |
| SIEEEIKKAEEAKEKGKTFIHGDFVATTEFLLDELLKRLRKKL | 1.13 kcal/mol |
| SIEEEIKKAEEAKEKGKTFIHGDFVATTEVLLDELLKRLRKKL | 0.976 kcal/mol |
| SIEEEIKKAEEAKEKGKTFIHGDFVATTEQLLDELLKRLRKKL | 1.14 kcal/mol |
| SIEEEIKKAEEAKEKGKTFIHGDFVATTEALLDELLKRLRKKL | 1.41 kcal/mol |
| SIEEEIKKAEEAKEKGKTFIHGDFVATTETLLDELLKRLRKKL | 1.09 kcal/mol |
| SIEEEIKKAEEAKEKGKTFIHGDFVATTEILLDELLKRLRKKL | 0.954 kcal/mol |

| Variant | folding stability dG |
| --- | --- |
| SIEEEIKKAEEAKEKGKTFIHGDFVATTENLLDELLKRLRKKL | 0.882 kcal/mol |
| SIEEEIKKAEEAKEKGKTFIHGDFVATTEDLLDELLKRLRKKL | 1.17 kcal/mol |
| SIEEEIKKAEEAKEKGKTFIHGDFVATTEGLLDELLKRLRKKL | 0.9 kcal/mol |
| SIEEEIKKAEEAKEKGKTFIHGDFVATTEELKDELLKRLRKKL | 0.345 kcal/mol |
| SIEEEIKKAEEAKEKGKTFIHGDFVATTEELFDELLKRLRKKL | 1.59 kcal/mol |
| SIEEEIKKAEEAKEKGKTFIHGDFVATTEELIDELLKRLRKKL | 1.46 kcal/mol |
| SIEEEIKKAEEAKEKGKTFIHGDFVATTEELNDELLKRLRKKL | 0.294 kcal/mol |
| SIEEEIKKAEEAKEKGKTFIHGDFVATTEELCDELLKRLRKKL | 0.637 kcal/mol |
| SIEEEIKKAEEAKEKGKTFIHGDFVATTEELTDELLKRLRKKL | 0.441 kcal/mol |
| SIEEEIKKAEEAKEKGKTFIHGDFVATTEELQDELLKRLRKKL | 0.13 kcal/mol |
| SIEEEIKKAEEAKEKGKTFIHGDFVATTEELMDELLKRLRKKL | 0.752 kcal/mol |
| SIEEEIKKAEEAKEKGKTFIHGDFVATTEELEDELLKRLRKKL | 0.247 kcal/mol |
| SIEEEIKKAEEAKEKGKTFIHGDFVATTEELVDELLKRLRKKL | 0.661 kcal/mol |
| SIEEEIKKAEEAKEKGKTFIHGDFVATTEELGDELLKRLRKKL | 0.372 kcal/mol |
| SIEEEIKKAEEAKEKGKTFIHGDFVATTEELSDELLKRLRKKL | 0.285 kcal/mol |
| SIEEEIKKAEEAKEKGKTFIHGDFVATTEELPDELLKRLRKKL | 0.168 kcal/mol |
| SIEEEIKKAEEAKEKGKTFIHGDFVATTEELHDELLKRLRKKL | 0.393 kcal/mol |
| SIEEEIKKAEEAKEKGKTFIHGDFVATTEELYDELLKRLRKKL | 1.22 kcal/mol |
| SIEEEIKKAEEAKEKGKTFIHGDFVATTEELWDELLKRLRKKL | 0.894 kcal/mol |
| SIEEEIKKAEEAKEKGKTFIHGDFVATTEELDDELLKRLRKKL | 0.374 kcal/mol |
| SIEEEIKKAEEAKEKGKTFIHGDFVATTEELRDELLKRLRKKL | 0.281 kcal/mol |
| SIEEEIKKAEEAKEKGKTFIHGDFVATTEELADELLKRLRKKL | 0.414 kcal/mol |
| SIEEEIKKAEEAKEKGKTFIHGDFVATTEELLDETLKRLRKKL | 0.38 kcal/mol |
| SIEEEIKKAEEAKEKGKTFIHGDFVATTEELLDEILKRLRKKL | 1.15 kcal/mol |

| Variant | folding stability dG |
| --- | --- |
| SIEEEIKKAEEAKEKGKTFIHGDFVATTEELLDEELKRLRKKL | 0.313 kcal/mol |
| SIEEEIKKAEEAKEKGKTFIHGDFVATTEELLDEQLKRLRKKL | 0.486 kcal/mol |
| SIEEEIKKAEEAKEKGKTFIHGDFVATTEELLDEVLKRLRKKL | 0.702 kcal/mol |
| SIEEEIKKAEEAKEKGKTFIHGDFVATTEELLDESLKRLRKKL | 0.043 kcal/mol |
| SIEEEIKKAEEAKEKGKTFIHGDFVATTEELLDEHLKRLRKKL | 0.458 kcal/mol |
| SIEEEIKKAEEAKEKGKTFIHGDFVATTEELLDEFLKRLRKKL | 0.799 kcal/mol |
| SIEEEIKKAEEAKEKGKTFIHGDFVATTEELLDEGLKRLRKKL | 0.119 kcal/mol |
| SIEEEIKKAEEAKEKGKTFIHGDFVATTEELLDENLKRLRKKL | 0.287 kcal/mol |
| SIEEEIKKAEEAKEKGKTFIHGDFVATTEELLDEKLKRLRKKL | 0.309 kcal/mol |
| SIEEEIKKAEEAKEKGKTFIHGDFVATTEELLDERLKRLRKKL | 0.542 kcal/mol |
| SIEEEIKKAEEAKEKGKTFIHGDFVATTEELLDEPLKRLRKKL | -0.141 kcal/mol |
| SIEEEIKKAEEAKEKGKTFIHGDFVATTEELLDEMLKRLRKKL | 0.714 kcal/mol |
| SIEEEIKKAEEAKEKGKTFIHGDFVATTEELLDEDLKRLRKKL | 0.12 kcal/mol |
| SIEEEIKKAEEAKEKGKTFIHGDFVATTEELLDEALKRLRKKL | 0.494 kcal/mol |
| SIEEEIKKAEEAKEKGKTFIHGDFVATTEETLDELLKRLRKKL | 0.882 kcal/mol |
| SIEEEIKKAEEAKEKGKTFIHGDFVATTEEVLDELLKRLRKKL | 0.71 kcal/mol |
| SIEEEIKKAEEAKEKGKTFIHGDFVATTEERLDELLKRLRKKL | 0.535 kcal/mol |
| SIEEEIKKAEEAKEKGKTFIHGDFVATTEEILDELLKRLRKKL | 0.938 kcal/mol |
| SIEEEIKKAEEAKEKGKTFIHGDFVATTEEMLDELLKRLRKKL | 1.65 kcal/mol |
| SIEEEIKKAEEAKEKGKTFIHGDFVATTEEFLDELLKRLRKKL | 0.877 kcal/mol |
| SIEEEIKKAEEAKEKGKTFIHGDFVATTEEPLDELLKRLRKKL | 0.452 kcal/mol |
| SIEEEIKKAEEAKEKGKTFIHGDFVATTEENLDELLKRLRKKL | 0.715 kcal/mol |
| SIEEEIKKAEEAKEKGKTFIHGDFVATTEEHLDELLKRLRKKL | 1.08 kcal/mol |
| SIEEEIKKAEEAKEKGKTFIHGDFVATTEEKLDELLKRLRKKL | 0.756 kcal/mol |

| Variant | folding stability dG |
| --- | --- |
| SIEEEIKKAEEAKEKGKTFIHGDFVATTEEELDELLKRLRKKL | 2 kcal/mol |
| SIEEEIKKAEEAKEKGKTFIHGDFVATTEEQLDELLKRLRKKL | 1.75 kcal/mol |
| SIEEEIKKAEEAKEKGKTFIHGDFVATTEEYLDELLKRLRKKL | 0.721 kcal/mol |
| SIEEEIKKAEEAKEKGKTFIHGDFVATTEESLDELLKRLRKKL | 0.841 kcal/mol |
| SIEEEIKKAEEAKEKGKTFIHGDFVATTEEDLDELLKRLRKKL | 1.52 kcal/mol |
| SIEEEIKKAEEAKEKGKTFIHGDFVATTEEWLDELLKRLRKKL | 0.95 kcal/mol |
| SIEEEIKKAEEAKEKGKTFIHGDFVATTEEGLDELLKRLRKKL | 0.74 kcal/mol |
| SIEEEIKKAEEAKEKGKTFIHGDFVATTEEALDELLKRLRKKL | 1.28 kcal/mol |
| SIEEEIKKAEEAKEKGKTFIHGDFVATTEELLDNLLKRLRKKL | 0.881 kcal/mol |
| SIEEEIKKAEEAKEKGKTFIHGDFVATTEELLDPLLKRLRKKL | 0.383 kcal/mol |
| SIEEEIKKAEEAKEKGKTFIHGDFVATTEELLDCLLKRLRKKL | 1.64 kcal/mol |
| SIEEEIKKAEEAKEKGKTFIHGDFVATTEELLDKLLKRLRKKL | 1.11 kcal/mol |
| SIEEEIKKAEEAKEKGKTFIHGDFVATTEELLDGLLKRLRKKL | 0.737 kcal/mol |
| SIEEEIKKAEEAKEKGKTFIHGDFVATTEELLDLLLKRLRKKL | 1.4 kcal/mol |
| SIEEEIKKAEEAKEKGKTFIHGDFVATTEELLDALLKRLRKKL | 1.19 kcal/mol |
| SIEEEIKKAEEAKEKGKTFIHGDFVATTEELLDQLLKRLRKKL | 1.17 kcal/mol |
| SIEEEIKKAEEAKEKGKTFIHGDFVATTEELLDTLLKRLRKKL | 1.02 kcal/mol |
| SIEEEIKKAEEAKEKGKTFIHGDFVATTEELLDILLKRLRKKL | 1.36 kcal/mol |
| SIEEEIKKAEEAKEKGKTFIHGDFVATTEELLDYLLKRLRKKL | 1.4 kcal/mol |
| SIEEEIKKAEEAKEKGKTFIHGDFVATTEELLDWLLKRLRKKL | 1.86 kcal/mol |
| SIEEEIKKAEEAKEKGKTFIHGDFVATTEELLDDLLKRLRKKL | 0.87 kcal/mol |
| SIEEEIKKAEEAKEKGKTFIHGDFVATTEELLDVLLKRLRKKL | 0.952 kcal/mol |
| SIEEEIKKAEEAKEKGKTFIHGDFVATTEELLDFLLKRLRKKL | 1.4 kcal/mol |
| SIEEEIKKAEEAKEKGKTFIHGDFVATTEELLDMLLKRLRKKL | 1.3 kcal/mol |

| Variant | folding stability dG |
| --- | --- |
| SIEEEIKKAEEAKEKGKTFIHGDFVATTEELLDSLLKRLRKKL | 0.84 kcal/mol |
| SIEEEIKKAEEAKEKGKTFIHGDFVATTEELLDRLLKRLRKKL | 1.2 kcal/mol |
| SIEEEIKKAEEAKEKGKTFIHGDFVATTEELLDHLLKRLRKKL | 1.02 kcal/mol |
| SIEEEIKKAEEAKEKGKTFIHGDFVATTEELLYELLKRLRKKL | 1.28 kcal/mol |
| SIEEEIKKAEEAKEKGKTFIHGDFVATTEELLPELLKRLRKKL | -0.325 kcal/mol |
| SIEEEIKKAEEAKEKGKTFIHGDFVATTEELLMELLKRLRKKL | 1.17 kcal/mol |
| SIEEEIKKAEEAKEKGKTFIHGDFVATTEELLEELLKRLRKKL | 1.34 kcal/mol |
| SIEEEIKKAEEAKEKGKTFIHGDFVATTEELLTELLKRLRKKL | 1.1 kcal/mol |
| SIEEEIKKAEEAKEKGKTFIHGDFVATTEELLSELLKRLRKKL | 1.04 kcal/mol |
| SIEEEIKKAEEAKEKGKTFIHGDFVATTEELLQELLKRLRKKL | 0.991 kcal/mol |
| SIEEEIKKAEEAKEKGKTFIHGDFVATTEELLGELLKRLRKKL | 0.853 kcal/mol |
| SIEEEIKKAEEAKEKGKTFIHGDFVATTEELLHELLKRLRKKL | 1.04 kcal/mol |
| SIEEEIKKAEEAKEKGKTFIHGDFVATTEELLVELLKRLRKKL | 1.17 kcal/mol |
| SIEEEIKKAEEAKEKGKTFIHGDFVATTEELLKELLKRLRKKL | 1.23 kcal/mol |
| SIEEEIKKAEEAKEKGKTFIHGDFVATTEELLAELLKRLRKKL | 1.22 kcal/mol |
| SIEEEIKKAEEAKEKGKTFIHGDFVATTEELLCELLKRLRKKL | 1.98 kcal/mol |
| SIEEEIKKAEEAKEKGKTFIHGDFVATTEELLNELLKRLRKKL | 1.27 kcal/mol |
| SIEEEIKKAEEAKEKGKTFIHGDFVATTEELLIELLKRLRKKL | 1.35 kcal/mol |
| SIEEEIKKAEEAKEKGKTFIHGDFVATTEELLLELLKRLRKKL | 1.23 kcal/mol |
| SIEEEIKKAEEAKEKGKTFIHGDFVATTEELLRELLKRLRKKL | 1.37 kcal/mol |
| SIEEEIKKAEEAKEKGKTFIHGDFVATTEELLFELLKRLRKKL | 1.32 kcal/mol |
| SIEEEIKKAEEAKEKGKTFIHGDFVATTEELLWELLKRLRKKL | 1.44 kcal/mol |

Source: the MegaScale stability set (Tsuboyama et al. 2023)
